# Assay results taken from patent publication US20120122239A1.
# Tests used:
# [1] = target: human pro B-type natriuretic peptide (HyTest, Turku, Finland; Catalog No. 8PRO8) (human); assay: sandwich CMIA, capture 15F11, 577.4 pM, against human NT-proBNP
# [2] = target: glycosylated human proBNP (HyTest, Turku, Finland; Catalog No. 8GOB2) (human); assay: as above
# [3] = target: human NT-pro B-type natriuretic peptide (HyTest, Turku, Finland; Catalog No. 8NT1) (human); assay: sandwich CMIA, capture 15C4, analyte 577.4 pM
# human NT-pro B-type natriuretic peptide (HyTest, Turku, Finland; Catalog No. 8NT1) (human), sequence (chain, as listed by the source): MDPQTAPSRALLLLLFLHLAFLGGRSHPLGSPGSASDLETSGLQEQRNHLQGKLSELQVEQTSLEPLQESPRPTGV
# [4] = target: human pro B-type natriuretic peptide (HyTest, Turku, Finland; Catalog No. 8PRO8) (human); assay: sandwich CMIA, capture 15C4, analyte 577.4 pM
# [5] = target: glycosylated human proBNP (HyTest, Turku, Finland; Catalog No. 8GOB2) (human); assay: sandwich CMIA, capture 15C4, analyte 577.4 pM
# [6] = target: human NT-pro B-type natriuretic peptide (HyTest, Turku, Finland; Catalog No. 8NT1) (human); assay: sandwich CMIA, capture 15C4, analyte 43.3 pM
# [7] = target: human pro B-type natriuretic peptide (HyTest, Turku, Finland; Catalog No. 8PRO8) (human); assay: sandwich CMIA, capture 15C4, analyte 43.3 pM
# [8] = target: glycosylated human proBNP (HyTest, Turku, Finland; Catalog No. 8GOB2) (human); assay: sandwich CMIA, capture 15C4, analyte 43.3 pM
# [9] = target: human NT-pro B-type natriuretic peptide (HyTest, Turku, Finland; Catalog No. 8NT1) (human); assay: sandwich CMIA, capture 15C4, analyte 0.0 pM (blank)
# [10] = target: human pro B-type natriuretic peptide (HyTest, Turku, Finland; Catalog No. 8PRO8) (human); assay: as above
# [11] = target: glycosylated human proBNP (HyTest, Turku, Finland; Catalog No. 8GOB2) (human); assay: as above
# [12] = target: human NT-pro B-type natriuretic peptide (HyTest, Turku, Finland; Catalog No. 8NT1) (human); assay: sandwich CMIA, capture 15F11, analyte 43.3 pM
# [13] = target: human pro B-type natriuretic peptide (HyTest, Turku, Finland; Catalog No. 8PRO8) (human); assay: sandwich CMIA, capture 15F11, analyte 43.3 pM
# [14] = target: glycosylated human proBNP (HyTest, Turku, Finland; Catalog No. 8GOB2) (human); assay: sandwich CMIA, capture 15F11, analyte 43.3 pM
# [15] = target: human pro B-type natriuretic peptide (HyTest, Turku, Finland; Catalog No. 8PRO8) (human); assay: sandwich CMIA, capture 15F11, against human NT-proBNP
# [16] = target: human NT-pro B-type natriuretic peptide (HyTest, Turku, Finland; Catalog No. 8NT1) (human); assay: sandwich CMIA, capture 15F11, analyte 288.7 pM
# [17] = target: human pro B-type natriuretic peptide (HyTest, Turku, Finland; Catalog No. 8PRO8) (human); assay: sandwich CMIA, capture 15F11, analyte 288.7 pM
# [18] = target: glycosylated human proBNP (HyTest, Turku, Finland; Catalog No. 8GOB2) (human); assay: sandwich CMIA, capture 15F11, analyte 288.7 pM
# [19] = target: human NT-pro B-type natriuretic peptide (HyTest, Turku, Finland; Catalog No. 8NT1) (human); assay: sandwich CMIA, capture 15F11, analyte 577.4 pM
# [20] = target: human pro B-type natriuretic peptide (HyTest, Turku, Finland; Catalog No. 8PRO8) (human); assay: sandwich CMIA, capture 15F11, analyte 577.4 pM
# [21] = target: glycosylated human proBNP (HyTest, Turku, Finland; Catalog No. 8GOB2) (human); assay: sandwich CMIA, capture 15F11, analyte 577.4 pM
# [22] = target: human pro B-type natriuretic peptide (HyTest, Turku, Finland; Catalog No. 8PRO8) (human); assay: sandwich CMIA, capture 15F11, 86.6 pM, against human NT-proBNP
# [23] = target: glycosylated human proBNP (HyTest, Turku, Finland; Catalog No. 8GOB2) (human); assay: as above
# [24] = target: human NT-pro B-type natriuretic peptide (HyTest, Turku, Finland; Catalog No. 8NT1) (human); assay: sandwich CMIA, capture 15F11, analyte 86.6 pM
# [25] = target: human pro B-type natriuretic peptide (HyTest, Turku, Finland; Catalog No. 8PRO8) (human); assay: sandwich CMIA, capture 15F11, analyte 86.6 pM
# [26] = target: glycosylated human proBNP (HyTest, Turku, Finland; Catalog No. 8GOB2) (human); assay: sandwich CMIA, capture 15F11, analyte 86.6 pM
# [27] = target: human pro B-type natriuretic peptide (HyTest, Turku, Finland; Catalog No. 8PRO8) (human); assay: sandwich CMIA, capture 15F11, 288.7 pM, against human NT-proBNP
# [28] = target: glycosylated human proBNP (HyTest, Turku, Finland; Catalog No. 8GOB2) (human); assay: as above
# [29] = target: human NT-pro B-type natriuretic peptide (HyTest, Turku, Finland; Catalog No. 8NT1) (human); assay: sandwich CMIA, capture 15C4, analyte 288.7 pM
# [30] = target: human pro B-type natriuretic peptide (HyTest, Turku, Finland; Catalog No. 8PRO8) (human); assay: sandwich CMIA, capture 15C4, analyte 288.7 pM
# [31] = target: glycosylated human proBNP (HyTest, Turku, Finland; Catalog No. 8GOB2) (human); assay: sandwich CMIA, capture 15C4, analyte 288.7 pM
# [32] = target: human NT-pro B-type natriuretic peptide (HyTest, Turku, Finland; Catalog No. 8NT1) (human); assay: sandwich CMIA, capture 15C4, analyte 86.6 pM
# [33] = target: human pro B-type natriuretic peptide (HyTest, Turku, Finland; Catalog No. 8PRO8) (human); assay: sandwich CMIA, capture 15C4, analyte 86.6 pM
# [34] = target: glycosylated human proBNP (HyTest, Turku, Finland; Catalog No. 8GOB2) (human); assay: sandwich CMIA, capture 15C4, analyte 86.6 pM
# [35] = target: human NT-pro B-type natriuretic peptide (HyTest, Turku, Finland; Catalog No. 8NT1) (human); assay: sandwich CMIA, capture 15F11, analyte 0.0 pM (blank)
# [36] = target: human pro B-type natriuretic peptide (HyTest, Turku, Finland; Catalog No. 8PRO8) (human); assay: as above
# [37] = target: glycosylated human proBNP (HyTest, Turku, Finland; Catalog No. 8GOB2) (human); assay: as above
# [38] = target: human pro B-type natriuretic peptide (HyTest, Turku, Finland; Catalog No. 8PRO8) (human); assay: sandwich CMIA, capture 15F11, 43.3 pM, against human NT-proBNP
# [39] = target: glycosylated human proBNP (HyTest, Turku, Finland; Catalog No. 8GOB2) (human); assay: as above
# human pro B-type natriuretic peptide (HyTest, Turku, Finland; Catalog No. 8PRO8) (human), sequence (chain, as listed by the source): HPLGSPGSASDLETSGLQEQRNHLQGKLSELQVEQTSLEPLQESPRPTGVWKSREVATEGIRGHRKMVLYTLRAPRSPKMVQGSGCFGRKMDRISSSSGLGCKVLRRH
Substance,Analyte rlus [3],Analyte rlus [4],Analyte rlus [5],Analyte rlus [6],Analyte rlus [7],Analyte rlus [8],Analyte rlus [9],Analyte rlus [10],Analyte rlus [11],Analyte rlus [12],Analyte rlus [13],Analyte rlus [14],Analyte rlus [16],Analyte rlus [17],Analyte rlus [18],Analyte rlus [19],Analyte rlus [20],Analyte rlus [21],Analyte rlus [24],Analyte rlus [25],also measured
"anti-human NT proBNP/anti-human proBNP monoclonal antibody 15C4 (HyTest, Turku, Finland)",2080 rlus,1960 rlus,1790 rlus,1980 rlus,2180 rlus,1800 rlus,1940 rlus,1940 rlus,1940 rlus,21200 rlus,1490 rlus,1260 rlus,312000 rlus,2190 rlus,1580 rlus,662000 rlus,3360 rlus,1450 rlus,57200 rlus,1540 rlus,% Cross-reactivity [1]: 0.3%; % Cross-reactivity [2]: 0%; % Cross-reactivity [15]: < 1%; % Cross-reactivity [22]: 0.4%; % Cross-reactivity [23]: 1.2%; Analyte rlus [26]: 2010 rlus; % Cross-reactivity [27]: 0.3%; % Cross-reactivity [28]: 0.1%; Analyte rlus [29]: 2060 rlus; Analyte rlus [30]: 1880 rlus; Analyte rlus [31]: 1860 rlus; Analyte rlus [32]: 2000 rlus; Analyte rlus [33]: 1820 rlus; Analyte rlus [34]: 1880 rlus; Analyte rlus [35]: 1340 rlus; Analyte rlus [36]: 1340 rlus; Analyte rlus [37]: 1340 rlus; % Cross-reactivity [38]: 0.7%; % Cross-reactivity [39]: -0.4%
"anti-human NT-proBNP/anti-human proBNP labeled monoclonal antibody 24E11 (HyTest, Turku, Finland)",850 rlus,735 rlus,770 rlus,786 rlus,718 rlus,781 rlus,821 rlus,821 rlus,821 rlus,7380 rlus,904 rlus,863 rlus,124000 rlus,1090 rlus,906 rlus,357000 rlus,1240 rlus,892 rlus,20800 rlus,938 rlus,% Cross-reactivity [1]: 0.1%; % Cross-reactivity [2]: 0%; % Cross-reactivity [15]: < 1%; % Cross-reactivity [22]: 0.3%; % Cross-reactivity [23]: 0.2%; Analyte rlus [26]: 918 rlus; % Cross-reactivity [27]: 0.2%; % Cross-reactivity [28]: 0%; Analyte rlus [29]: 814 rlus; Analyte rlus [30]: 834 rlus; Analyte rlus [31]: 725 rlus; Analyte rlus [32]: 699 rlus; Analyte rlus [33]: 747 rlus; Analyte rlus [34]: 751 rlus; Analyte rlus [35]: 886 rlus; Analyte rlus [36]: 886 rlus; Analyte rlus [37]: 886 rlus; % Cross-reactivity [38]: 0.3%; % Cross-reactivity [39]: -0.4%
"anti-human NT proBNP/anti-human proBNP monoclonal antibody 15F11 (HyTest, Turku, Finland)",1370 rlus,917 rlus,859 rlus,883 rlus,851 rlus,1010 rlus,847 rlus,847 rlus,847 rlus,904 rlus,857 rlus,899 rlus,977 rlus,949 rlus,925 rlus,1010 rlus,897 rlus,953 rlus,929 rlus,963 rlus,Analyte rlus [26]: 886 rlus; Analyte rlus [29]: 1140 rlus; Analyte rlus [30]: 945 rlus; Analyte rlus [31]: 930 rlus; Analyte rlus [32]: 998 rlus; Analyte rlus [33]: 1040 rlus; Analyte rlus [34]: 835 rlus; Analyte rlus [35]: 912 rlus; Analyte rlus [36]: 912 rlus; Analyte rlus [37]: 912 rlus
"anti-human NT-proBNP/anti-human proBNP labeled monoclonal antibody 7B5 (HyTest, Turku, Finland)",2180 rlus,726 rlus,800 rlus,750 rlus,686 rlus,606 rlus,590 rlus,590 rlus,590 rlus,615 rlus,589 rlus,528 rlus,593 rlus,556 rlus,525 rlus,534 rlus,612 rlus,600 rlus,549 rlus,529 rlus,Analyte rlus [26]: 505 rlus; Analyte rlus [29]: 1180 rlus; Analyte rlus [30]: 607 rlus; Analyte rlus [31]: 672 rlus; Analyte rlus [32]: 719 rlus; Analyte rlus [33]: 641 rlus; Analyte rlus [34]: 581 rlus; Analyte rlus [35]: 615 rlus; Analyte rlus [36]: 615 rlus; Analyte rlus [37]: 615 rlus
